Assay [1] deals with endophilin SH3 (SH3G2_HUMAN), Q99962. As to the kind of experiment: SPOT array.
In assay [2] the target is T1, amphyphisin SH3 (AMPH_HUMAN), P49418.
T1 chain: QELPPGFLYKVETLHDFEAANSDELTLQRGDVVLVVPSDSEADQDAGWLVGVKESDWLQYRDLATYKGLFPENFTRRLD
Kind of assay: SPOT array.

B1: O94854 101-114 (peptide)
chain: WIPVLQRPSRTAAV
Take B1: the normalised SPOT signal, Boehringer light units (BLU); mean over the file's lines of this peptide in assay [1] was found to be 1300; in assay [2] it was 2390.

B2: P30990 153-166 (peptide)
chain: YENKPRRPYILKRD
As to B2, the normalised SPOT signal, Boehringer light units (BLU); mean over the file's lines of this peptide in assay [1] amounted to 208; in assay [2] it was 51.5.

B3: Q13006 89-102 (peptide)
chain: YSTGPPRPGRLFGS
For B3, the normalised SPOT signal, Boehringer light units (BLU); mean over the file's lines of this peptide amounted to 364 in assay [1] and 317 in assay [2].

B4: O14686 2329-2343 (peptide)
chain: YGLSPLRPPSVLPP
On to B4, for which the figures for the normalised SPOT signal, Boehringer light units (BLU); mean over the file's lines of this peptide in assay [1] and in assay [2] were 118 and 40, respectively.

B5: Q9P2P9 924-937 (peptide)
chain: WVTMPRRPPPSGGL
On to B5, for which the normalised SPOT signal, Boehringer light units (BLU); mean over the file's lines of this peptide in assay [1] turned out to be 2400; in assay [2], 31.

B6: Q92794 305-318 (peptide)
chain: WISQISRPRKKGRK
As for B6, the normalised SPOT signal, Boehringer light units (BLU); mean over the file's lines of this peptide in assay [1] worked out at 452; in assay [2], 190.

B7: P54317 34-47 (peptide)
chain: WAGTLQRPVKLLPW
B7: the normalised SPOT signal, Boehringer light units (BLU); mean over the file's lines of this peptide in assay [1] stood at 332; in assay [2] it was 109.

B8: Q92625 879-893 (peptide)
chain: YEEPPQKPPRFSQL
Take B8: the normalised SPOT signal, Boehringer light units (BLU); mean over the file's lines of this peptide in assay [1] was determined as 131; in assay [2], 3280.

B9: Q9UMR2 108-121 (peptide)
chain: YAMGFNRPSKIQEN
In the case of B9, the values for the normalised SPOT signal, Boehringer light units (BLU); mean over the file's lines of this peptide in assay [1] and in assay [2] were 244 and 237, respectively.

B10: O15250 155-168 (peptide)
chain: WTDRPERPSKPLLT
Turning to B10, the figures for the normalised SPOT signal, Boehringer light units (BLU); mean over the file's lines of this peptide in assay [1] and in assay [2] were 508 and 3180, respectively.

B11: Q12770 808-821 (peptide)
chain: SLTRIPRPGRQRRD
Turning to B11, the normalised SPOT signal, Boehringer light units (BLU); mean over the file's lines of this peptide in assay [1] worked out at 294; in assay [2] it was 817.

B12: P42898 339-352 (peptide)
chain: WTEDPRRPLPWALS
On to B12, for which the normalised SPOT signal, Boehringer light units (BLU); mean over the file's lines of this peptide in assay [1] was 110; in assay [2], 38.4.

B13: P23368 123-136 (peptide)
chain: YGHIFRRPKGLFIS
On to B13, for which the normalised SPOT signal, Boehringer light units (BLU); mean over the file's lines of this peptide in assay [1] was found to be 110; in assay [2], 35.9.

B14: Q9Y6W6 10-23 (peptide)
chain: VVVALSRPVRPQDL
For B14, the normalised SPOT signal, Boehringer light units (BLU); mean over the file's lines of this peptide is 0 in assay [1] and 465 in assay [2].

B15: Q9C0B8 71-85 (peptide)
chain: WGALPPRPPLLLLL
B15: the normalised SPOT signal, Boehringer light units (BLU); mean over the file's lines of this peptide in assay [1] came to 3390; in assay [2], 42.8.

B16: P11229 442-455 (peptide)
chain: WRKIPKRPGSVHRT
For B16, the normalised SPOT signal, Boehringer light units (BLU); mean over the file's lines of this peptide in assay [1] was 573; in assay [2] it was 48.9.

B17: Q9ULK5 218-231 (peptide)
chain: WALFFRRPKASLPR
On to B17, for which the figures for the normalised SPOT signal, Boehringer light units (BLU); mean over the file's lines of this peptide in assay [1] and in assay [2] were 1700 and 194, respectively.

B18: Q9UGQ3 12-26 (peptide)
chain: YDTFPEKPPPSPGD
For B18, the figures for the normalised SPOT signal, Boehringer light units (BLU); mean over the file's lines of this peptide in assay [1] and in assay [2] were 97.2 and 33, respectively.

B19: Q9Y4J6 675-688 (peptide)
chain: SNKGFRRPSEKNQH
As to B19, the normalised SPOT signal, Boehringer light units (BLU); mean over the file's lines of this peptide stood at 55.9 in assay [1] and 43.2 in assay [2].

B20: Q16798 148-161 (peptide)
chain: YGLTFRRPRGLFIT
With B20, the normalised SPOT signal, Boehringer light units (BLU); mean over the file's lines of this peptide in assay [1] was found to be 347; in assay [2] it was 23.2.

B21: O94991 330-344 (peptide)
chain: VYKPPLKPPKGTRQ
Take B21: the normalised SPOT signal, Boehringer light units (BLU); mean over the file's lines of this peptide turned out to be 782 in assay [1] and 80.6 in assay [2].

B22: AAH30267 1118-1132 (peptide)
chain: VYTPPPRPPPPWGS
As for B22, the normalised SPOT signal, Boehringer light units (BLU); mean over the file's lines of this peptide stood at 4170 in assay [1] and 180 in assay [2].

B23: P42695 1464-1478 (peptide)
chain: SLSLPDKPPPQPQQ
Consider B23, for which the normalised SPOT signal, Boehringer light units (BLU); mean over the file's lines of this peptide in assay [1] was 59.6; in assay [2], 57.9.

B24: Q9H1V5 704-717 (peptide)
chain: WRRSLRRPDSRGRF
With B24, the figures for the normalised SPOT signal, Boehringer light units (BLU); mean over the file's lines of this peptide in assay [1] and in assay [2] were 217 and 95.6, respectively.

B25: Q9NP08 303-316 (peptide)
chain: WPAGPRRPHRSSAS
Regarding B25, the results for the normalised SPOT signal, Boehringer light units (BLU); mean over the file's lines of this peptide in assay [1] and in assay [2] were 4250 and 7190, respectively.

B26: Q96QG0 338-351 (peptide)
chain: SPSAPRRPRRPRRP
Turning to B26, the normalised SPOT signal, Boehringer light units (BLU); mean over the file's lines of this peptide in assay [1] was found to be 1730; in assay [2] it was 4890.

B27: Q96N50 15-28 (peptide)
chain: WRYDLRRPSFTRTW
Consider B27, for which the normalised SPOT signal, Boehringer light units (BLU); mean over the file's lines of this peptide in assay [1] was 628; in assay [2] it was 140.

B28: Q96G29 26-39 (peptide)
chain: WLGSLRRPSLVHGY
Take B28: the normalised SPOT signal, Boehringer light units (BLU); mean over the file's lines of this peptide is 2680 in assay [1] and 879 in assay [2].

B29: O43397 6-19 (peptide)
chain: WSEVLHRPWRNHPI
Consider B29, for which the results for the normalised SPOT signal, Boehringer light units (BLU); mean over the file's lines of this peptide in assay [1] and in assay [2] were 366 and 272, respectively.

B30: Q9HB39 190-203 (peptide)
chain: YGPNIGRPRKNVIA
As to B30, the normalised SPOT signal, Boehringer light units (BLU); mean over the file's lines of this peptide in assay [1] was 166; in assay [2] it was 134.

B31: Q9Y6A1 387-400 (peptide)
chain: VVSSPPRPVRHGDM
Consider B31, for which the normalised SPOT signal, Boehringer light units (BLU); mean over the file's lines of this peptide was 2050 in assay [1] and 2920 in assay [2].

B32: O94824 705-718 (peptide)
chain: YERTLRRPVPLPHS
On to B32, for which the normalised SPOT signal, Boehringer light units (BLU); mean over the file's lines of this peptide was 297 in assay [1] and 37 in assay [2].

B33: Q13545 27-40 (peptide)
chain: WGSLPARPRRPTPT
For B33, the normalised SPOT signal, Boehringer light units (BLU); mean over the file's lines of this peptide amounted to 7230 in assay [1] and 4730 in assay [2].

B34: Q9UP58 185-199 (peptide)
chain: WSRSPPRPPRERFE
Take B34: the normalised SPOT signal, Boehringer light units (BLU); mean over the file's lines of this peptide in assay [1] was determined as 18400; in assay [2], 7550.

B35: Q96DX2 170-184 (peptide)
chain: WGLLPFRPPRPLPV
For the molecule B35, the normalised SPOT signal, Boehringer light units (BLU); mean over the file's lines of this peptide worked out at 3620 in assay [1] and 4460 in assay [2].

B36: Q9UL63 619-632 (peptide)
chain: WSLKLSRPSKDYLL
Consider B36, for which the normalised SPOT signal, Boehringer light units (BLU); mean over the file's lines of this peptide in assay [1] turned out to be 2270; in assay [2] it was 1110.

B37: P54198 312-325 (peptide)
chain: WLTSLKRPLVVIHE
Turning to B37, the normalised SPOT signal, Boehringer light units (BLU); mean over the file's lines of this peptide amounted to 326 in assay [1] and 26.3 in assay [2].

B38: O14782 762-776 (peptide)
chain: WSQSPQRPPPSTTH
On to B38, for which the normalised SPOT signal, Boehringer light units (BLU); mean over the file's lines of this peptide in assay [1] turned out to be 557; in assay [2] it was 73.9.

(Values after article PMC314469, “Protein Interaction Networks by Proteome Peptide Scanning” (PLoS Biology, 2004).)
